Laboratory results from article PMC5554155.

Experiment: immunoblot, N-terminal Flag vs C-terminal epitopes, ldlD cells
Settings: glycan lost; control: WT Ser49-β1AR, ldlD cells with Gal/GalNAc

Substance	other: proteolytic processing
β1-adrenergic receptor (β1AR): N15A	no change
β1-adrenergic receptor (β1AR): ldlD cells without Gal/GalNAc	increases
